Source: patent US20070092518A1 (published 2007)
Positions count from the first letter of the chain named.

B1: TNFα antibody C7 (full-length antibody) (antibody, V domains shown)
VH: EVQLVESGGGLVQPGGSLRLSCAASGFIFSNHWMNWVRQAPGKGLEWIGEIRSKSINSATHYAESVKGRFIISRDDNKNSLYLEMNSLKTEDTAEYYCARNYYGSTYDYWGQGTLVTVS
VL: EIVLTQSPDFQSVTPKEKVTITCRASQFVGSSIHWYQQKPDQSPKLLIKYASESMSGVPSRFSGSGSGTDFTFTISSLEAEDAATYYCQQSHSWPFTFGPGTKVDIK
notes: Variable regions subcloned into a mammalian construct with infliximab constant region (IgG1 kappa)
B2: SEQ ID NO 159 (Fab, V domains shown)
VH: B1 VH with N57Y, H61S, D76G, K78G, N79T, Y82T
VL: B1 VL
notes: Fab, E. coli lysate
B3: SEQ ID NO 71 (Fab, V domains shown)
VH: EVQLTESGGGLVQPGGSLRLSCRASGSTFSNHWMNWVRQAPGKGLEWIGEIRSKSIYGATSYAESVKGRFIISRDGNKTSLTLEMNSLKTEDTAEYYCARNYYGSTPDYWGQGTLVTVS
VL: B1 VL
notes: Fab, E. coli lysate
B4: SEQ ID NO 188 (Fab, V domains shown)
VH: B1 VH with W33Y, N57Y, S58G, H61S, S80D, R100Q
VL: B1 VL
notes: Fab, E. coli lysate
B5: SEQ ID NO 184 (Fab, V domains shown)
VH: B1 VH with G26Q, W33Y, D76G, K78G, N79T, S80D
VL: B1 VL
notes: Fab, E. coli lysate
B6: SEQ ID NO 162 (Fab, V domains shown)
VH: B1 VH with G26Q, W33Y, I56S, N57Y, D76G, S80D, Y82T
VL: B1 VL
notes: Fab, E. coli lysate
B7: SEQ ID NO 179 (Fab, V domains shown)
VH: B3 VH with R23A, G26Q, S27F, I56S, Y57N, S61H, G76D, K78G
VL: B1 VL
notes: Fab, E. coli lysate
B8: SEQ ID NO 189 (Fab, V domains shown)
VH: B3 VH with R23A, G26Q, S27F, G58S, S61H, G76D, K78G
VL: B1 VL
notes: Fab, E. coli lysate
B9: SEQ ID NO 178 (Fab, V domains shown)
VH: B1 VH with I28T, W33Y, N57Y, D76G, K78G, Y82T, Y107P
VL: B1 VL
notes: Fab, E. coli lysate
B10: SEQ ID NO 165 (Fab, V domains shown)
VH: B1 VH with G26Q, I28T, W33Y, I56S, N57Y, S58G, D76G, N79T, S80D, R100Q
VL: B1 VL
notes: Fab, E. coli lysate
B11: SEQ ID NO 182 (Fab, V domains shown)
VH: B3 VH with R23A, S27F, W33Y, G58S, S61H, K78G, S80D, T82Y, R100Q
VL: B1 VL
notes: Fab, E. coli lysate
B12: SEQ ID NO 180 (Fab, V domains shown)
VH: B1 VH with A23R, W33Y, I56S, N79T, Y82T, R100Q, Y107P
VL: B1 VL
notes: Fab, E. coli lysate
B13: SEQ ID NO 166 (Fab, V domains shown)
VH: B1 VH with G26Q, W33Y, H61S, D76G, N79T, S80D
VL: B1 VL
notes: Fab, E. coli lysate
B14: SEQ ID NO 187 (Fab, V domains shown)
VH: B3 VH with R23A, S27F, W33Y, I56S, K78G, S80D, T82Y, R100Q, P107Y
VL: B1 VL
notes: Fab, E. coli lysate
B15: SEQ ID NO 181 (Fab, V domains shown)
VH: B1 VH with I28T, I56S, N57Y, Y82T, R100Q, Y107P
VL: B1 VL
notes: Fab, E. coli lysate
B16: SEQ ID NO 175 (Fab, V domains shown)
VH: B1 VH with A23R, S58G, N79T, Y82T, R100Q
VL: B1 VL
notes: Fab, E. coli lysate
B17: SEQ ID NO 172 (Fab, V domains shown)
VH: B3 VH with R23A, S27F, S61H, T79N, S80D, R100Q
VL: B1 VL
notes: Fab, E. coli lysate
B18: SEQ ID NO 161 (Fab, V domains shown)
VH: B1 VH with V5T, A23R, N57Y, K78G, S80D, R100Q, Y107P
VL: B1 VL
notes: Fab, E. coli lysate
B19: SEQ ID NO 186 (Fab, V domains shown)
VH: B3 VH with R23A, W33Y, G58S, G76D, K78G, T79N
VL: B1 VL
notes: Fab, E. coli lysate
B20: SEQ ID NO 177 (Fab, V domains shown)
VH: B3 VH with R23A, G26Q, W33Y, I56S, Y57N, G76D, T79N, S80D, R100Q, P107Y
VL: B1 VL
notes: Fab, E. coli lysate
B21: SEQ ID NO 169 (Fab, V domains shown)
VH: B1 VH with V5T, W33Y, S58G, H61S, K78G, S80D, Y82T, R100Q, Y107P
VL: B1 VL
notes: Fab, E. coli lysate
B22: SEQ ID NO 171 (Fab, V domains shown)
VH: B1 VH with G26Q, F27S, I28T, W33Y, N57Y, H61S, K78G, R100Q, Y107P
VL: B1 VL
notes: Fab, E. coli lysate
B23: SEQ ID NO 163 (Fab, V domains shown)
VH: B1 VH with G26Q, N57Y, N79T, S80D, Y82T, R100Q, Y107P
VL: B1 VL
notes: Fab, E. coli lysate
B24: SEQ ID NO 174 (Fab, V domains shown)
VH: B3 VH with T5V, W33Y, I56S, G58S, G76D, S80D, R100Q
VL: B1 VL
notes: Fab, E. coli lysate
B25: SEQ ID NO 170 (Fab, V domains shown)
VH: B1 VH with F27S, I28T, K78G, N79T, R100Q
VL: B1 VL
notes: Fab, E. coli lysate
B26: SEQ ID NO 168 (Fab, V domains shown)
VH: B3 VH with R23A, G26Q, Y57N, T82Y
VL: B1 VL
notes: Fab, E. coli lysate
B27: SEQ ID NO 167 (Fab, V domains shown)
VH: B1 VH with G26Q, I28T, I56S, N57Y, S58G, N79T, S80D, Y82T
VL: B1 VL
notes: Fab, E. coli lysate
B28: SEQ ID NO 190 (Fab, V domains shown)
VH: B1 VH with A23R, H61S, D76G, N79T, S80D, Y82T
VL: B1 VL
notes: Fab, E. coli lysate
B29: SEQ ID NO 164 (Fab, V domains shown)
VH: B1 VH with V5T, F27S, W33Y, N57Y, D76G, K78G, N79T, S80D
VL: B1 VL
notes: Fab, E. coli lysate

Each binder was assayed against T1, human tumor necrosis factor-α (rHuTNF-alpha, Biosource) (human, UniProt P01375 77-233) (assay: Biacore, against infliximab).
T1 construct: Bought recombinant protein coated on ELISA plates; The TNFα of the Biacore assay is not described further; also called TNFα; human TNFα
T1 sequence (P01375 77-233 limits assumed): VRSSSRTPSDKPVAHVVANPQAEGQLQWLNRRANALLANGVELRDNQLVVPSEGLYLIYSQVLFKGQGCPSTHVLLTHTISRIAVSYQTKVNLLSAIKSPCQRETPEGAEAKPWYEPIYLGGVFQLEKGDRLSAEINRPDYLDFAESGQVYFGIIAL
With B1 the “fold higher binding affinity than infliximab” value was > 2 fold.

Each binder was assayed against T1, human tumor necrosis factor-α … (assay: Biacore).
In the case of B1, the Kd is reported as 0.07 nM.

Each binder was assayed against T1, human tumor necrosis factor-α … (assay: solid-phase ELISA, Fab lysate on coated rHuTNF-alpha).
Method in brief: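 E. coli lysates expressing His-tagged Fab (pTrcHis2A) were incubated 2 h at RT on wells coated with 1 μg/ml rHuTNF-α and blocked with BSA. Bound Fab was detected with biotinylated anti-human kappa plus penta-His conjugates, then streptavidin-POD and TMB. Absorbance was read at 450 nm.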
B2: binds.
B3: binds.
B4: binds.
B5: binds.
B6: binds.
B7: binds.
B8: binds.
B9: binds.
B10: binds.
B11: binds.
B12: binds.
B13: binds.
B14: binds.
B15: binds.
B16: binds.
B17: binds.
B18: binds.
B19: binds.
B20: binds.
B21: binds.
B22: binds.
B23: binds.
B24: binds.
B25: binds.
B26: binds.
B27: binds.
B28: binds.
B29: binds.
